The supplement of paper PMC12042874
± gives the uncertainty stated by the source.

Test: amyloid nucleation score (Sup35N fusion, yeast selection) (log enrichment); library NNK3; higher = more nucleation; inactive = no reads after selection
Outline: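 Using DiMSum, nucleation scores were taken as the log enrichment of output over input reads, centred on the mode score of non-aggregating sequences. The input and output reads came from Illumina sequencing of plasmid inserts, with sequences under 100 input reads excluded. The yeast were psi-negative, expressed Sup35N fused to peptides of 20 random codons, were induced with 100 μM copper sulfate for 24 hours, and were grown 7 days at 30°C on medium lacking adenine and uracil.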

Row | Substance | amyloid nucleation score
1 | REMFASPSIGTALRR | inactive
2 | REPVRLQNKRLPRCQRREWC | inactive
3 | RESVTSPILILSWEGISRCH | inactive
4 | REVRNWRERVCQMRVLVVMC | inactive
5 | REWRSNDGFFGSDSGVVGHT | inactive
6 | RFGAGILRSSNQDSGFRVTG | inactive
7 | RFKMAYFKNTAYLFNNANSV | inactive
8 | RFNTDSQPAVMIVFRYNRLR | inactive
9 | RFRHGDTGSTFRCWCFVS | inactive
10 | RFSCCYRPLLYNQKVEWWRG | inactive
11 | RFSCEYVATLTLSGRQAVKH | 0.043 ± 0.72
12 | RFSGM | inactive
13 | RFTMWRNDHC | 0.421 ± 0.38
14 | RFVLQ | inactive
15 | RFWRCWAMINR | inactive
16 | RGGCQATVGNALNIRFFAQG | 1.72 ± 0.095
17 | RGGRTSVLLNRSMLVEK | inactive
18 | RGGTASQVFMCFKLVFRSRY | -0.14 ± 0.6
19 | RGIANCPHLCIAYLMLS | inactive
20 | RGINDDSPF | inactive
21 | RGLRTKVGMSVRNCEYRYVM | -0.455 ± 1.1

Row | Substance | amyloid nucleation score
22 | RGLVLVFVREAYRREY | 0.598 ± 0.29
23 | RGMCV | inactive
24 | RGMFTFNYMNWGKDLLRPRL | inactive
25 | RGPFGLYSLDILLVSQVFRR | 0.502 ± 0.23
26 | RGRGAPCARFRNVYGMPFFY | inactive
27 | RGRYWWFYYLAFICMKWYSG | inactive
28 | RGSWSYQILWINTVRW | -0.347 ± 0.53
29 | RHELTNRREK | inactive
30 | RHEVRRKKSQ | inactive
31 | RHEVYSTANYHVCSCRFFIV | 0.406 ± 0.17
32 | RHGLCFTIEAVPPPFIRWHW | -0.662 ± 1.3
33 | RHGSCMTVCVYSSMLSYRST | 0.163 ± 0.31
34 | RHLDNFNINVTLNLSFRVGM | 2.52 ± 0.089
35 | RHREAGEATTSFNFMRMSGP | inactive
36 | RHRFSTSGRYFVSIRLVSSF | inactive
37 | RHSLQMVRGTHSLCLWYNWV | inactive
38 | RIEAFLAP | 1.12 ± 0.18
39 | RILLLDTEFRLPNLPTS | 1.89 ± 0.072
40 | RILLNANRYTMPSGVYDHRA | inactive
41 | RIPVSWFNWCTWVYVL | inactive
42 | RISKA | inactive

Row | Substance | amyloid nucleation score
43 | RISLDNTWGFL | inactive
44 | RISSCSYHRVRVHVDTWAHV | inactive
45 | RIVNALTSCDLFSCGSVLRR | 1.92 ± 0.1
46 | RIYQRSFIWCASMESGSGPL | 0.747 ± 0.2
47 | RKASSVFILGFVWWDHFEIL | inactive
48 | RKAYATYATDRLISSDYG | inactive
49 | RKEMLKMRRFRSRGCWVILS | inactive
50 | RKFGWIRVAWCSKRIVYYSK | -0.324 ± 0.62
51 | RKNVELANPLFTSPWLNIMY | inactive
52 | RKPFENIDS | inactive
53 | RKRYFWNHAEISILKTSSSW | inactive
54 | RKSDFVIVSCYQRFGNRELN | inactive
55 | RKVEG | inactive
56 | RKYVTRCASMMVHHYAYDTR | inactive
57 | RLEGRLLCKWVCP | 1.96 ± 0.069
58 | RLFFNPVVVVIWPGVRNVGV | 0.189 ± 0.66
59 | RLFFVSMAF | inactive
60 | RLFRWMPDNVTGRWMVYAWF | inactive
61 | RLFTTLVRDLTENCIRFLWT | inactive
62 | RLGLSAMSFCLCDSTSIATY | inactive
63 | RLGSSNV | inactive

Row | Substance | amyloid nucleation score
64 | RLIILNVFVSDNTNWLHRIH | 1.37 ± 0.083
65 | RLILDNHDTSFCLIHGSRMI | inactive
66 | RLIYHRQFFRE | inactive
67 | RLLGTRSYTIWACYTCAVFM | 2.15 ± 0.088
68 | RLLLGTIYSFLKLHGDFNGR | inactive
69 | RLLLMIL | inactive
70 | RLMDITL | inactive
71 | RLMYKMMHVSGDEECLFVMV | inactive
72 | RLNVYTYAKFRRHRCKATSW | inactive
73 | RLNWGFTLA | inactive
74 | RLPLPL | inactive
75 | RLRFLRT | inactive
76 | RLRRSGVKWVVLKGGTRTWQ | inactive
77 | RLRSNDSDLNRIAAIKVRGI | inactive
78 | RLRVG | inactive
79 | RLRVM | inactive
80 | RLSAPCCWYNTLIE | 1.96 ± 0.099
81 | RLSEFGVNVAQMWATVVTSL | inactive
